Read-outs that look alike come from different tables or passages of the source.

One may read the EC50 (read off the curve) as the concentration that produces a half-maximal response. Read a high EC50 (read off the curve) as lower potency in that assay. As usually defined, the Kd is the concentration at which binding is half-saturated. Low values mean higher affinity, high ones lower affinity.

Assay [1] addresses Mouse laminin (isolated from the EHS-sarcoma) (mouse) (UniProt P19137). Nature of the assay: cell-based or functional assay.
Assay [2] concerns the target Collagen type IV (CIV). Nature of the assay: cell-based or functional assay.
The target in assay [3] is Bovine serum albumin (BSA) (bovine) (UniProt P02769). Briefly: cell-based or functional assay.
Sequence of Bovine serum albumin (BSA) (bovine) (P02769 25-607 limits assumed): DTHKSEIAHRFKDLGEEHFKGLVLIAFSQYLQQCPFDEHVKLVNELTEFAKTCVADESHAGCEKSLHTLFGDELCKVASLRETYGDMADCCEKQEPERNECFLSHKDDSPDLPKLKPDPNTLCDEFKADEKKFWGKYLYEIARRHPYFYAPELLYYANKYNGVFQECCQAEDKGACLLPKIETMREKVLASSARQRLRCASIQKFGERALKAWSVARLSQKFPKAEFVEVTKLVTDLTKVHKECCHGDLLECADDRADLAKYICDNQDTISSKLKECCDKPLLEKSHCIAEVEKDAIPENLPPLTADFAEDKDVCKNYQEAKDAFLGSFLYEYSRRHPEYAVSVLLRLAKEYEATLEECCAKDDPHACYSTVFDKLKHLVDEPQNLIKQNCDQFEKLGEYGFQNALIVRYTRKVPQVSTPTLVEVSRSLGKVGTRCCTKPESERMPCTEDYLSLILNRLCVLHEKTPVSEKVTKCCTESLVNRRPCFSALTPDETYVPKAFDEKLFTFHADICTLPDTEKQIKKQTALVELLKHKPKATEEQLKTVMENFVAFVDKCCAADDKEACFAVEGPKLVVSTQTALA
In assay [4] the target is Ace of E. faecalis strain OG1RF (native; on 46°C grown cells and in mutanolysin extracts) (Enterococcus faecalis strain OG1RF). Nature of the assay: cell-based or functional assay.
For assay [5], the target named is Collagen type IV (CIV). Nature of the assay: cell-based or functional assay. This is another data set of the same source.
In assay [6] the target is Ace of E. faecalis strain MC02152 (native; on cells and in mutanolysin extracts) (Enterococcus faecalis strain MC02152). Nature of the assay: cell-based or functional assay.
Assay [7] deals with Ace of E. faecalis strain V583 (native; on cells and in mutanolysin extracts) (Enterococcus faecalis strain V583). Briefly: cell-based or functional assay.
Assay [8] concerns the target Ace of E. faecalis strain OG1RF (native; on 46°C grown cells and in mutanolysin extracts) (Enterococcus faecalis strain OG1RF). Nature of the assay: cell-based or functional assay. This is another data set of the same source.
Assay [9] deals with Mouse laminin (isolated from the EHS-sarcoma) (mouse) (UniProt P19137). Briefly: ELISA, 10 µg immobilised LN, bound His-tagged Ace A detected with penta-His monoclonal antibody, OD450. In general terms: An ELISA detects its analyte on a solid surface through an enzyme-linked reagent.
For another assay, the target named is Collagen type I (CI). Briefly: ELISA, 10 µg immobilised CI, bound His-tagged Ace A detected with penta-His monoclonal antibody, OD450.
The target of assay [10] is T1, Bovine Type I collagen (Collagen Corp.), immobilised on a CM5 chip (bovine, UniProt P02453 162-1217; P02465 80-1117).
T1 construct: Bought, predissolved in 0.1 M HCl
T1 sequence (P02453 162-1217 limits assumed, chain 1 of 2): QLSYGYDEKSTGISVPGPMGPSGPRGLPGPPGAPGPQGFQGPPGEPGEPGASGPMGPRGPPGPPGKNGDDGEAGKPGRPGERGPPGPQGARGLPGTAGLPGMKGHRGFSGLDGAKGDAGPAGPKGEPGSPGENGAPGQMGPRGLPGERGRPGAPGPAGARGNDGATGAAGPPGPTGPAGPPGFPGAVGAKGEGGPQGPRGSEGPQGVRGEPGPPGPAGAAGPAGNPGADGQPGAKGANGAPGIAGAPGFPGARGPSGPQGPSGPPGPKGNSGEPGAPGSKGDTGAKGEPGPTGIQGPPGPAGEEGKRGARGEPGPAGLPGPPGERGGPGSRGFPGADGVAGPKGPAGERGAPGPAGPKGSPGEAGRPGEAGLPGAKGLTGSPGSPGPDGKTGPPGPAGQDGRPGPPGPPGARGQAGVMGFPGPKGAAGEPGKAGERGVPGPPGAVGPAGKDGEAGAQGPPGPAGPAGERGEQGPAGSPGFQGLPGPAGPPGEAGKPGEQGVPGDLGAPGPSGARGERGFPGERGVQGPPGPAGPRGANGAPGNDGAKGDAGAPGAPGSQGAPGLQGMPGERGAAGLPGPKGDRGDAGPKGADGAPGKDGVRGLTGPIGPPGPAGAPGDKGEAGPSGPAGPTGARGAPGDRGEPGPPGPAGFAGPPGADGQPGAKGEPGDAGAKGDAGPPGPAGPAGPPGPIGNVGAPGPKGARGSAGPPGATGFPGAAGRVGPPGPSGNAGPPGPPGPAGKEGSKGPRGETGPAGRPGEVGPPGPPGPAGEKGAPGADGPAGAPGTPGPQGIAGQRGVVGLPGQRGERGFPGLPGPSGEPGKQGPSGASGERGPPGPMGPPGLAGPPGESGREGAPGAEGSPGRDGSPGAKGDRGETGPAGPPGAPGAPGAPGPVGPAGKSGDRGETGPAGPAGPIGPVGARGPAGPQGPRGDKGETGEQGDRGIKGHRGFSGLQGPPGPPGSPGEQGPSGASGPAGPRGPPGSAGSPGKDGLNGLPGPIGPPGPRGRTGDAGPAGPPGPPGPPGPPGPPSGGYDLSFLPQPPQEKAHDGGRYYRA
T1 sequence (P02465 80-1117 limits assumed, chain 2 of 2): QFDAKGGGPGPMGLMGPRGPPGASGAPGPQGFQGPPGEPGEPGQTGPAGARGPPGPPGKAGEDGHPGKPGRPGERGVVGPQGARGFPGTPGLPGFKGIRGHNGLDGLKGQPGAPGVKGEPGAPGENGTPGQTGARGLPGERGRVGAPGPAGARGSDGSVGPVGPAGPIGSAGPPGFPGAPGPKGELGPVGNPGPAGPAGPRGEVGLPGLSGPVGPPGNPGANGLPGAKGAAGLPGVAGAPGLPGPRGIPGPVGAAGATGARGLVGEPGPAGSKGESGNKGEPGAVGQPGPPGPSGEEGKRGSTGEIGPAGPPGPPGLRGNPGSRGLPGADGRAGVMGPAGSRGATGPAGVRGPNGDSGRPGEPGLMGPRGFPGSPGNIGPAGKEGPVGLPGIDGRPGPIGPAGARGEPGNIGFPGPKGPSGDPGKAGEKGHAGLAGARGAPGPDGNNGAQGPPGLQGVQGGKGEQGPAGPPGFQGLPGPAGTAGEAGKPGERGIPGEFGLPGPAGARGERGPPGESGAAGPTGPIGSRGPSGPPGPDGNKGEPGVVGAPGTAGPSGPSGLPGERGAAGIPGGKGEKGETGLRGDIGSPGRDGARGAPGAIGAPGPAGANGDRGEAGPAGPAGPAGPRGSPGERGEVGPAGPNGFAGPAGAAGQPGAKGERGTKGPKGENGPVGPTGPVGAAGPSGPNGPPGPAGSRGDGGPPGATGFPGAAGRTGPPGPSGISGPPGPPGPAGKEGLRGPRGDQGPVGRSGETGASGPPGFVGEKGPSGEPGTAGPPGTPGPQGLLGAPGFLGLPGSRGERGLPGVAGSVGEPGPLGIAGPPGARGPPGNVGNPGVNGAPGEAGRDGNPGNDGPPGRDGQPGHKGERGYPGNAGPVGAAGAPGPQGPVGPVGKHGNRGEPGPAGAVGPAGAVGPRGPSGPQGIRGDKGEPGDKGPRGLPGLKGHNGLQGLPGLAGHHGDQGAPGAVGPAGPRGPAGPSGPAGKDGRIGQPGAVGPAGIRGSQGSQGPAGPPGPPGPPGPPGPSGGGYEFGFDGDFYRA
Nature of the assay: SPR (BIAcore 1000), Scatchard analysis of equilibrium responses, 1-70 µM Ace A over immobilised collagen; three measurements.

For assay [11], the target named is Mouse laminin (isolated from the EHS-sarcoma) (mouse, UniProt P19137 25-3083; P02469 22-1786; P02468 34-1607). Nature of the assay: cell-based or functional assay.

“Ace of E. faecalis strain END6 (mutanolysin extract)” returned a % adherence of 46°C grown END6 to LN in assay [1] of over 20%. The % adherence of 46°C grown END6 to CIV with Collagen type IV (CIV) [2] is over 20%.
Consider “Ace of E. faecalis strain MC02152 (native; on cells and in mutanolysin extracts)”, for which, in assay [1], the % adherence of 46°C grown MC02152 to LN is over 20%, the % of 37°C grown MC02152 cells bound to LN came out at 7.1%, the % of 46°C grown MC02152 cells bound to LN was 41% and the % of MC02152 cells bound to LN; no IgG (% of cells bound) is 26.7. In the assay with Collagen type IV (CIV) [2], this molecule came in with a % adherence of 46°C grown MC02152 to CIV of over 20%, a % of 37°C grown MC02152 cells bound to CIV of 8.9%, a % of 46°C grown MC02152 cells bound to CIV of 38% and a % of MC02152 cells bound to CIV; no IgG (% of cells bound) of 27.7. In [3], this molecule registered a % of MC02152 cells bound to BSA; no IgG (% of cells bound) of 0.6.
In [4], “IgGs purified from pooled normal human sera collected from healthy volunteers (antibody)” showed a % of OG1RF cells bound to BSA; NHS IgG 0.1 mg/ml (% of cells bound) of 0.9, a % of OG1RF cells bound to BSA; NHS IgG 1 mg/ml (% of cells bound) of 0.7, a % of OG1RF cells bound to BSA; NHS IgG 2 mg/ml (% of cells bound) of 0.7 and a % of OG1RF cells bound to BSA; NHS IgG 4 mg/ml (% of cells bound) of 0.8. In assay [4], this molecule showed a % of OG1RF cells bound to CIV; NHS IgG 0.1 mg/ml (% of cells bound) of 24.8, a % of OG1RF cells bound to CIV; NHS IgG 1 mg/ml (% of cells bound) of 25.6, a % of OG1RF cells bound to CIV; NHS IgG 2 mg/ml (% of cells bound) of 24 and a % of OG1RF cells bound to CIV; NHS IgG 4 mg/ml (% of cells bound) of 25.6. For the same molecule, in [4], the % of OG1RF cells bound to LN; NHS IgG 0.1 mg/ml (% of cells bound) stood at 31.5, the % of OG1RF cells bound to LN; NHS IgG 1 mg/ml (% of cells bound) was found to be 31.3, the % of OG1RF cells bound to LN; NHS IgG 2 mg/ml (% of cells bound) came out at 31.3 and the % of OG1RF cells bound to LN; NHS IgG 4 mg/ml (% of cells bound) came to 31.4.
For “Ace of E. faecalis strain OG1RF (native; on 46°C grown cells and in mutanolysin extracts)”, the % of OG1RF cells bound to CIV; no IgG (% of cells bound) is 27.7 in the assay with Collagen type IV (CIV) [2] and 29.6 with Collagen type IV (CIV) [5]. The molecule further displayed a fold decrease of adherence to CIV in ace mutant TX5256 against OG1RF with Collagen type IV (CIV) [2] of 27.4 fold.
For “Ace of E. faecalis strain MD9 (mutanolysin extract)”, in [1], the % adherence of 46°C grown MD9 to LN is over 20%. The same molecule registered a % adherence of 46°C grown MD9 to CIV with Collagen type IV (CIV) [2] of over 20%.
Take “Preimmune rabbit serum and IgGs purified from it (Example 2) (antibody)”: in assay [6], the % of MC02152 cells bound to BSA; PI IgG 20 µg/ml (% of cells bound) was found to be 0.5, the % of MC02152 cells bound to CIV; PI IgG 20 µg/ml (% of cells bound) was determined as 26.5 and the % of MC02152 cells bound to LN; PI IgG 20 µg/ml (% of cells bound) was determined as 23.5. In assay [7], this molecule displayed a % of V583 cells bound to BSA; PI IgG 20 µg/ml (% of cells bound) of 0.6, a % of V583 cells bound to CIV; PI IgG 20 µg/ml (% of cells bound) of 33.6 and a % of V583 cells bound to LN; PI IgG 20 µg/ml (% of cells bound) of 27.6. For the same molecule, in assay [8], the % of OG1RF cells bound to BSA; PI IgG 0.001 µg/ml (% of cells bound) came to 0.7, the % of OG1RF cells bound to BSA; PI IgG 0.01 µg/ml (% of cells bound) came out at 0.1, the % of OG1RF cells bound to BSA; PI IgG 0.1 µg/ml (% of cells bound) came to 0.6 and the % of OG1RF cells bound to BSA; PI IgG 1 µg/ml (% of cells bound) was 0.8. In assay [8], this molecule yielded a % of OG1RF cells bound to BSA; PI IgG 10 µg/ml (% of cells bound) of 0.6, a % of OG1RF cells bound to BSA; PI IgG 100 µg/ml (% of cells bound) of 0.6, a % of OG1RF cells bound to CIV; PI IgG 0.001 µg/ml (% of cells bound) of 30.3 and a % of OG1RF cells bound to CIV; PI IgG 0.01 µg/ml (% of cells bound) of 28.8. In assay [8], this molecule displayed a % of OG1RF cells bound to CIV; PI IgG 0.1 µg/ml (% of cells bound) of 28.9, a % of OG1RF cells bound to CIV; PI IgG 1 µg/ml (% of cells bound) of 25.9, a % of OG1RF cells bound to CIV; PI IgG 10 µg/ml (% of cells bound) of 26.6 and a % of OG1RF cells bound to CIV; PI IgG 100 µg/ml (% of cells bound) of 26. In assay [8], the % of OG1RF cells bound to LN; PI IgG 0.001 µg/ml (% of cells bound) is 30.2, the % of OG1RF cells bound to LN; PI IgG 0.01 µg/ml (% of cells bound) stood at 31.4, the % of OG1RF cells bound to LN; PI IgG 0.1 µg/ml (% of cells bound) was 29.1 and the % of OG1RF cells bound to LN; PI IgG 1 µg/ml (% of cells bound) turned out to be 26.4. In [8], this molecule registered a % of OG1RF cells bound to LN; PI IgG 10 µg/ml (% of cells bound) of 28.3 and a % of OG1RF cells bound to LN; PI IgG 100 µg/ml (% of cells bound) of 32.
Molecule “Ace of E. faecalis strain JH2-2 (mutanolysin extract)” yielded a % adherence of 46°C grown JH2-2 to LN in assay [1] of over 20%. In the assay with Collagen type IV (CIV) [2], this molecule returned a % adherence of 46°C grown JH2-2 to CIV of over 20%.
In [1], “Ace of E. faecalis strain V583 (native; on cells and in mutanolysin extracts)” returned a % adherence of 46°C grown V583 to LN of over 20% and a % of V583 cells bound to LN; no IgG (% of cells bound) of 29.4. In the assay with Collagen type IV (CIV) [2], this molecule yielded a % adherence of 46°C grown V583 to CIV of over 20% and a % of V583 cells bound to CIV; no IgG (% of cells bound) of 38.1. Moreover, the % of V583 cells bound to BSA; no IgG (% of cells bound) in assay [3] stood at 0.7.
Turning to “Recombinant Ace A domain of E. faecalis OG1RF (His-tagged, pBAD/HisA, TX5254)”, the values for the EC50 (read off the curve) (in assay [9]; with Collagen type I (CI)) were 7 µM and 10 µM, respectively.

B1: Recombinant E. faecalis EF1 Ace A domain (N-terminal His6-tag fusion, from pQE-30) (other)
chain: MRGSHHHHHHGSELSKSSIVDKVELDHTTLYQGEMTSIKVSFSDKENQKIKPGDTITLTLPDELVGMTENDGSPRKINLNGLGEVFIYKDHVVATFNEKVESLHNVNGHFSFGIKTLITNSSQPNVIETDFGTATATQRLTIEGVTNTETGQIERDYPFFYKVGDLAGESNQVRWFLNVNLNKSDVTEDISIADRQGSGQQLNKESFTFDIVNDKETKYISLAEFEQQGYGKIDFVTDNDFNLRFYRDKARFTSFIVRYTSTITEAGQHQATFENSYDINYQLNNQDATNEKNTSQVKNVFVEGEASGNQNVEMPTEESLDIPLETIEEWEPKTPTSEQATETSEKTD
notes: Residues 32-367 are counted from nucleotides 94-1101; also called recombinant Ace A domain
Consider B1, for which the Kd in [10] was 48 µM. This counts as double-digit micromolar.

B2: Ace of E. faecalis strain OG1RF (native; on 46°C grown cells and in mutanolysin extracts) (other)
chain: ELSKSSIVDKVELDHTTLYQGEMTSIKVSFSDKENQKIKPGDTITLTLPDALVGMTENDGSPRKINLNGLGEVFIYKDHVVATFNEKVESLHNVNGHFSFGIKTLITNSSQPNVIETDFGTATATQRLTIEGVTNTETGQIERDYPFFYKVGDLAGESNQVRWFLNVNLNKSDVTEDISIADRQGSGQQLNKESFTFDIVNDKETKYISLAEFEQQGYGKIDFVTDNDFNLRFYRNKARFTSFIVRYTSTITEAGQHQATFENSYDINYQLNNQDATNEKNTSQVKNVFVEGEASGNQNVEMPTEESLDIPLETIDEWEPKTPTSEQATETSEKTGATETAESSQPEVHVSPTEEENPDEGGTLGTIEPIIPEKPSVTTEENGVTETAEGSQPEVHVSPTEEENPDESETLGTITPIIPEKPSVTTEENGVTETAEGSQPEVHVSPTEEENPDESETLGTITPIIPEKPSVTTEENGATETAESSQPEVHVSPAEEENPDESETLGTITPIIPEKPSVTTEENGTTETAESSQPEVHVSPTEEENLDESETLGTIEPIIPEKPSVTTEENGTTETAESSQPEVHVSPTKEITTTEKKQPSTETTVEKNKNVTSKNQPQILNAPLNTVKNEGSPQLAPQLLSEPIQKLNEANGQRELPKT
For the molecule B2, in assay [11], the “fold decrease of adherence to LN in ace mutant TX5256 against OG1RF” value is 32.9 fold.

The values above are taken from US6908994 (TEXAS A AND M UNIVERSITY SYSTEM, dated 2005).
